From patent US20240124607A1 (Merck Sharp & Dohme, published 2024)

Assays:
human CEACAM5 on cells = target: T1, human CEACAM5 on cells (human, UniProt P06731 35-685); experiment: flow cytometry, MKN-45 cells
T1 construct: tumour cell lines with endogenous CEACAM5, or B16F10 engineered to express hCEACAM5; also called CEACAM5 on MKN-45, HPAF-II, SK-CO-1, LoVo, BxPC-3, Kato-III, LS-174T, ZR-75-30; hCEACAM5-B16F10
T1 sequence: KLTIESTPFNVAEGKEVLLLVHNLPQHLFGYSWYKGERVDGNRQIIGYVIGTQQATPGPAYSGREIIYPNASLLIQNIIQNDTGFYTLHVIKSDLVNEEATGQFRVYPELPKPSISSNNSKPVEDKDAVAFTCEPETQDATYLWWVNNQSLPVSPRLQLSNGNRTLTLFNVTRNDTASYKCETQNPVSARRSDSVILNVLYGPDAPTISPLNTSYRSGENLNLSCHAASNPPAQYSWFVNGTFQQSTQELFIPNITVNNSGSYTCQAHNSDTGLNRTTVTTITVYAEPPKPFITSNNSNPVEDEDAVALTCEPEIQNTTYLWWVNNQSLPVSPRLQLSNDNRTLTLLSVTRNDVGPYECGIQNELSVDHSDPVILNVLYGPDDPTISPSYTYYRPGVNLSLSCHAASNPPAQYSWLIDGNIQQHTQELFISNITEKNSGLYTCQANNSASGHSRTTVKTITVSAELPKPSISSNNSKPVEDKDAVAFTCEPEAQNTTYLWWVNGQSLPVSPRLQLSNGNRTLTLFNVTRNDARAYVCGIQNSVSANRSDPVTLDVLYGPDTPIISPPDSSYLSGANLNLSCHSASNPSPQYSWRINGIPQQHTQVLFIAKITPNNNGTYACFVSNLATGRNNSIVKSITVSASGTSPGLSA
Protocol: MKN-45 and HPAF-II human cancer cell lines were diluted into FACS buffer and 100,000 cells of each cell type were seeded per well in duplicate into 96-well plates for FACS staining. The cells were washed with PBS, incubated in a 1:2000 dilution of live/dead dye in PBS for 15 minutes, and then washed with FACS buffer. AB0264, AB0411, AB0466, and AB0621 were diluted into FACS buffer, and 50 μl of each diluted TriNKET was added to the cells. After incubation on ice for 30-120 minutes, the cells were washed with FACS buffer. Anti-human IgG-Fc secondary antibody was diluted into FACS buffer, and 50 μl was added per well for detection of the bound TriNKETs. The cells were incubated for 30-60 minutes on ice and then washed with FACS buffer. 50 μl of fixation buffer was added to each well and the cells were incubated for 10 minutes at room temperature. The cells were washed with FACS buffer and resuspended in FACS buffer for analysis with ThermoFisher Attune NxT, BD FACS Celesta SN #H66034400085, or BD FACS Celesta SN #H66034400160.

[1] = target: T2, Human CEACAM5 I80V V83A I112V I113T (human, UniProt P06731 35-685, limits assumed); experiment: SPR, 37C, pH 7.4; reference E398
T2 chain: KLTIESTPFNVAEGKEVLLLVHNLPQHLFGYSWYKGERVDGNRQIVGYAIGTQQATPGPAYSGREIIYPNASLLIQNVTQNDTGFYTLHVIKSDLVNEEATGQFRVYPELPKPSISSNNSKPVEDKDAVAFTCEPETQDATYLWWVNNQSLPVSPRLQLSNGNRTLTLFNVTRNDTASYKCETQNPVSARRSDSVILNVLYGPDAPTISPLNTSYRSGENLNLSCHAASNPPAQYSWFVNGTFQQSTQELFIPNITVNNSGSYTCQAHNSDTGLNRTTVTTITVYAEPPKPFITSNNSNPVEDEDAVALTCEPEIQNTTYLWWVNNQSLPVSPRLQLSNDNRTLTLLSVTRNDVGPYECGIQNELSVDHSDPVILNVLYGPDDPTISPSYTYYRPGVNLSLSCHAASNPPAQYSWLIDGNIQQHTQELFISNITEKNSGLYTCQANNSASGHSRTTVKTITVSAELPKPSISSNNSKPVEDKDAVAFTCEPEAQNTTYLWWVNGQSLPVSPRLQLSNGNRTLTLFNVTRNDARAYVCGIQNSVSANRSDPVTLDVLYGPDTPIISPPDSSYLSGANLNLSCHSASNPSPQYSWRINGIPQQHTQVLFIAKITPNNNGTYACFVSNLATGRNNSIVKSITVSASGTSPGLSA

Human CEACAM5 I112V = target: T3, Human CEACAM5 I112V (human, UniProt P06731 35-685, limits assumed); experiment: SPR, 37C, pH 7.4; reference E398
T3 sequence: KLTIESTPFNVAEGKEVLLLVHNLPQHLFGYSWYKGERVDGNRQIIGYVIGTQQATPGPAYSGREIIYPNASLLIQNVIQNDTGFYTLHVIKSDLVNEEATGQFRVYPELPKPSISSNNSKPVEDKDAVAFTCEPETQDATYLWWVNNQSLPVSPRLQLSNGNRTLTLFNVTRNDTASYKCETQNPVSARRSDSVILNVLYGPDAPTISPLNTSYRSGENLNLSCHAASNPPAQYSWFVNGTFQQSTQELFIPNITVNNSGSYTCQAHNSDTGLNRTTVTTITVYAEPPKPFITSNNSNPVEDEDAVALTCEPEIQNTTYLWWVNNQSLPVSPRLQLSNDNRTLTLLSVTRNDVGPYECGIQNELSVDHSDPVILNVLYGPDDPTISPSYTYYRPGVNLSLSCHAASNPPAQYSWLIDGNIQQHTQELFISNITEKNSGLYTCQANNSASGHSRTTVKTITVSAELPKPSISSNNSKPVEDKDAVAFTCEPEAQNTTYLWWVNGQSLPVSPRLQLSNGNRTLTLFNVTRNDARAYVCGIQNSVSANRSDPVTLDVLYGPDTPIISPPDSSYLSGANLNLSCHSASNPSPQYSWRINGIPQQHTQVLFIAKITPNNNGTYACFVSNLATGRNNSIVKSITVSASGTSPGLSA

B1: AB0411 F3' CEACAM5 TriNKET (bispecific antibody, human IgG1, kappa)
chain: DIQLTQSPATLSVSPGERATLSCRASQSVSSSYLAWYQQKPGQAPRLLIYGASSRATGIPDRFSGSGSGTDFTLTISRLEPEDFAVYYCQQYNNWPLTFGCGTKVEIKGGGGSGGGGSGGGGSGGGGSQVQLVQSGGGLVQPGGSLRLSCAASGFTFTSYAMSWVRQAPGKCLEWVSAISGTGDSTFYADSVKGRFTFSRDNSKNTLYLQMNSLRAEDTAVYYCAKDLGWLQYGLFDYWGQGTLVTVSSGSDKTHTCPPCPAPELLGGPSVFLFPPKPKDTLMISRTPEVTCVVVDVSHEDPEVKFNWYVDGVEVHNAKTKPREEQYNSTYRVVSVLTVLHQDWLNGKEYKCKVSNKALPAPIEKTISKAKGQPREPRVYTLPPCRDELTKNQVSLTCLVKGFYPSDIAVEWESNGQPENNYKTTPPVLVSDGSFTLYSKLTVDKSRWQQGNVFSCSVMHEALHNHYTQKSLSLSPG
heavy: EVQLVESGGGLVKPGGSLRLSCAASGFTFSSYSMNWVRQAPGKGLEWVSSISSSSSYIYYADSVKGRFTISRDNAKNSLYLQMNSLRAEDTAVYYCARGAPIGAAAGWFDPWGQGTLVTVSSASTKGPSVFPLAPSSKSTSGGTAALGCLVKDYFPEPVTVSWNSGALTSGVHTFPAVLQSSGLYSLSSVVTVPSSSLGTQTYICNVNHKPSNTKVDKKVEPKSCDKTHTCPPCPAPELLGGPSVFLFPPKPKDTLMISRTPEVTCVVVDVSHEDPEVKFNWYVDGVEVHNAKTKPREEQYNSTYRVVSVLTVLHQDWLNGKEYKCKVSNKALPAPIEKTISKAKGQPREPQVCTLPPSRDELTENQVSLTCLVKGFYPSDIAVEWESNGQPENNYKTTPPVLDSDGSFFLYSWLTVDKSRWQQGNVFSCSVMHEALHNHYTQKSLSLSPG
light: DIQMTQSPSSVSASVGDRVTITCRASQGISSWLAWYQQKPGKAPKLLIYAASSLQSGVPSRFSGSGSGTDFTLTISSLQPEDFATYYCQQGVSFPRTFGGGTKVEIKRTVAAPSVFIFPPSDEQLKSGTASVVCLLNNFYPREAKVQWKVDNALQSGNSQESVTEQDSKDSTYSLSSTLTLSKADYEKHKVYACEVTHQGLSSPVTKSFNRGEC
EC50 (human CEACAM5 on cells): 16.2 nM | Max FOB (human CEACAM5 on cells): 120 fold over background | KD/KD(Ref) [1]: 3.9 fold | KD/KD(Ref) (Human CEACAM5 I112V): 1.2 fold
